According to patent US20200079833A1 (AstraZeneca / MedImmune, published 2020):
Starred links: 1 amine or outer side, 2 acyl side, 3 side chain; linkers in the order of their positions; H or OH if unused. Non-standard residues stand in square brackets, D forms with d. Groups on a side chain read outwards from the residue. Primed or numbered codes have the meaning given here. No end group written: not given here. *: point of attachment. Dodecanoyl(12-OPh(4-COOH)) = O=C(O)c1ccc(OCCCCCCCCCCCC(=O)*)cc1; γGlu = O=C(O)[C@H](CCC(=O)[*:2])N[*:1]; Stearoyl = CCCCCCCCCCCCCCCCCC(=O)*; αMeF = C[C@](N)(Cc1ccccc1)C(=O)O; αMeK = C[C@](N)(CCCCN)C(=O)O; Lauroyl = CCCCCCCCCCCC(=O)*; αMeS = C[C@](N)(CO)C(=O)O; PEG2′ = not defined here; Aib = CC(C)(N)C(=O)O; Ahx = NCCCCCC(=O)O

T1: GLP-1R (INS1e assay) (UniProt P32301 22-463, limits assumed)
T1 sequence (looked up): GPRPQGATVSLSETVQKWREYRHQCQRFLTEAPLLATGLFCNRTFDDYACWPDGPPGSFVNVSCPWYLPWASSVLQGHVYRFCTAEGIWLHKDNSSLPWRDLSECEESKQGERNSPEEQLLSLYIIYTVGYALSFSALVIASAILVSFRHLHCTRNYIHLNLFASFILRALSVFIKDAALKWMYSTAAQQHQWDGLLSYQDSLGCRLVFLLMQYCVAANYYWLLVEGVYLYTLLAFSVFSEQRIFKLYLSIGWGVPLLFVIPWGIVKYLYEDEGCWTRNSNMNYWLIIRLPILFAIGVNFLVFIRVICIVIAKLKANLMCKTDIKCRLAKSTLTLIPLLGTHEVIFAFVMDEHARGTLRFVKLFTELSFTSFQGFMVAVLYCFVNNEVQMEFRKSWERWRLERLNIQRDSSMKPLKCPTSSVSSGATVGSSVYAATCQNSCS

B1: SEQ ID NO 166 (peptide)
peptide: H[Aib]EGS[αMeF]TSDV[αMeS]S[αMeF]LEGEAA[αMeK]E[αMeF]IA[αMeF]VVK([γGlu-γGlu-γGlu-Lauroyl])GG-NH2
modifications: N-terminus assumed
SMILES: CCCCCCCCCCCC(=O)N[C@@H](CCC(=O)N[C@@H](CCC(=O)N[C@@H](CCC(=O)NCCCC[C@H](NC(=O)[C@@H](NC(=O)[C@@H](NC(=O)[C@](C)(Cc1ccccc1)NC(=O)[C@H](C)NC(=O)[C@@H](NC(=O)[C@](C)(Cc1ccccc1)NC(=O)[C@H](CCC(=O)O)NC(=O)[C@](C)(CCCCN)NC(=O)[C@H](C)NC(=O)[C@H](C)NC(=O)[C@H](CCC(=O)O)NC(=O)CNC(=O)[C@H](CCC(=O)O)NC(=O)[C@H](CC(C)C)NC(=O)[C@](C)(Cc1ccccc1)NC(=O)[C@H](CO)NC(=O)[C@](C)(CO)NC(=O)[C@@H](NC(=O)[C@H](CC(=O)O)NC(=O)[C@H](CO)NC(=O)[C@@H](NC(=O)[C@](C)(Cc1ccccc1)NC(=O)[C@H](CO)NC(=O)CNC(=O)[C@H](CCC(=O)O)NC(=O)C(C)(C)NC(=O)[C@@H](N)Cc1c[nH]cn1)[C@@H](C)O)C(C)C)[C@@H](C)CC)C(C)C)C(C)C)C(=O)NCC(=O)NCC(N)=O)C(=O)O)C(=O)O)C(=O)O
B2: SEQ ID NO 132 (peptide)
peptide: H[Aib]EGS[αMeF]TSDV[αMeS]S[αMeF]LEGEAAK([Ahx-Ahx-Lauroyl])E[αMeF]IA[αMeF]VV[αMeK]GG-NH2
modifications: N-terminus assumed
SMILES: CCCCCCCCCCCC(=O)NCCCCCC(=O)NCCCCCC(=O)NCCCC[C@H](NC(=O)[C@H](C)NC(=O)[C@H](C)NC(=O)[C@H](CCC(=O)O)NC(=O)CNC(=O)[C@H](CCC(=O)O)NC(=O)[C@H](CC(C)C)NC(=O)[C@](C)(Cc1ccccc1)NC(=O)[C@H](CO)NC(=O)[C@](C)(CO)NC(=O)[C@@H](NC(=O)[C@H](CC(=O)O)NC(=O)[C@H](CO)NC(=O)[C@@H](NC(=O)[C@](C)(Cc1ccccc1)NC(=O)[C@H](CO)NC(=O)CNC(=O)[C@H](CCC(=O)O)NC(=O)C(C)(C)NC(=O)[C@@H](N)Cc1c[nH]cn1)[C@@H](C)O)C(C)C)C(=O)N[C@@H](CCC(=O)O)C(=O)N[C@@](C)(Cc1ccccc1)C(=O)N[C@H](C(=O)N[C@@H](C)C(=O)N[C@@](C)(Cc1ccccc1)C(=O)N[C@H](C(=O)N[C@H](C(=O)N[C@@](C)(CCCCN)C(=O)NCC(=O)NCC(N)=O)C(C)C)C(C)C)[C@@H](C)CC
B3: SEQ ID NO 140 (peptide)
peptide: H[Aib]EGS[αMeF]TSDV[αMeS]S[αMeF]LEGEAAK([Ahx-Dodecanoyl(12-OPh(4-COOH))])E[αMeF]IA[αMeF]VV[αMeK]GG-NH2
modifications: N-terminus assumed
SMILES: CC[C@H](C)[C@H](NC(=O)[C@](C)(Cc1ccccc1)NC(=O)[C@H](CCC(=O)O)NC(=O)[C@H](CCCCNC(=O)CCCCCNC(=O)CCCCCCCCCCCOc1ccc(C(=O)O)cc1)NC(=O)[C@H](C)NC(=O)[C@H](C)NC(=O)[C@H](CCC(=O)O)NC(=O)CNC(=O)[C@H](CCC(=O)O)NC(=O)[C@H](CC(C)C)NC(=O)[C@](C)(Cc1ccccc1)NC(=O)[C@H](CO)NC(=O)[C@](C)(CO)NC(=O)[C@@H](NC(=O)[C@H](CC(=O)O)NC(=O)[C@H](CO)NC(=O)[C@@H](NC(=O)[C@](C)(Cc1ccccc1)NC(=O)[C@H](CO)NC(=O)CNC(=O)[C@H](CCC(=O)O)NC(=O)C(C)(C)NC(=O)[C@@H](N)Cc1c[nH]cn1)[C@@H](C)O)C(C)C)C(=O)N[C@@H](C)C(=O)N[C@@](C)(Cc1ccccc1)C(=O)N[C@H](C(=O)N[C@H](C(=O)N[C@@](C)(CCCCN)C(=O)NCC(=O)NCC(N)=O)C(C)C)C(C)C
B4: SEQ ID NO 137 (peptide)
peptide: H[Aib]EGS[αMeF]TSDV[αMeS]S[αMeF]LEGEAAK([γGlu-Dodecanoyl(12-OPh(4-COOH))])E[αMeF]IA[αMeF]VV[αMeK]GG-NH2
modifications: N-terminus assumed
SMILES: CC[C@H](C)[C@H](NC(=O)[C@](C)(Cc1ccccc1)NC(=O)[C@H](CCC(=O)O)NC(=O)[C@H](CCCCNC(=O)CC[C@H](NC(=O)CCCCCCCCCCCOc1ccc(C(=O)O)cc1)C(=O)O)NC(=O)[C@H](C)NC(=O)[C@H](C)NC(=O)[C@H](CCC(=O)O)NC(=O)CNC(=O)[C@H](CCC(=O)O)NC(=O)[C@H](CC(C)C)NC(=O)[C@](C)(Cc1ccccc1)NC(=O)[C@H](CO)NC(=O)[C@](C)(CO)NC(=O)[C@@H](NC(=O)[C@H](CC(=O)O)NC(=O)[C@H](CO)NC(=O)[C@@H](NC(=O)[C@](C)(Cc1ccccc1)NC(=O)[C@H](CO)NC(=O)CNC(=O)[C@H](CCC(=O)O)NC(=O)C(C)(C)NC(=O)[C@@H](N)Cc1c[nH]cn1)[C@@H](C)O)C(C)C)C(=O)N[C@@H](C)C(=O)N[C@@](C)(Cc1ccccc1)C(=O)N[C@H](C(=O)N[C@H](C(=O)N[C@@](C)(CCCCN)C(=O)NCC(=O)NCC(N)=O)C(C)C)C(C)C
B5: SEQ ID NO 141 (peptide)
peptide: H[Aib]EGS[αMeF]TSDV[αMeS]S[αMeF]LEGEAAK([Ahx-Ahx-Dodecanoyl(12-OPh(4-COOH))])E[αMeF]IA[αMeF]VV[αMeK]GG-NH2
modifications: N-terminus assumed
SMILES: CC[C@H](C)[C@H](NC(=O)[C@](C)(Cc1ccccc1)NC(=O)[C@H](CCC(=O)O)NC(=O)[C@H](CCCCNC(=O)CCCCCNC(=O)CCCCCNC(=O)CCCCCCCCCCCOc1ccc(C(=O)O)cc1)NC(=O)[C@H](C)NC(=O)[C@H](C)NC(=O)[C@H](CCC(=O)O)NC(=O)CNC(=O)[C@H](CCC(=O)O)NC(=O)[C@H](CC(C)C)NC(=O)[C@](C)(Cc1ccccc1)NC(=O)[C@H](CO)NC(=O)[C@](C)(CO)NC(=O)[C@@H](NC(=O)[C@H](CC(=O)O)NC(=O)[C@H](CO)NC(=O)[C@@H](NC(=O)[C@](C)(Cc1ccccc1)NC(=O)[C@H](CO)NC(=O)CNC(=O)[C@H](CCC(=O)O)NC(=O)C(C)(C)NC(=O)[C@@H](N)Cc1c[nH]cn1)[C@@H](C)O)C(C)C)C(=O)N[C@@H](C)C(=O)N[C@@](C)(Cc1ccccc1)C(=O)N[C@H](C(=O)N[C@H](C(=O)N[C@@](C)(CCCCN)C(=O)NCC(=O)NCC(N)=O)C(C)C)C(C)C

Each binder was assayed against T1, GLP-1R (INS1e assay) (assay: cell-based or functional assay).

Row | INS1e assay EC50 GLP-1 R n1 [pM] | INS1e assay EC50 GLP-1 R n2 [pM] | INS1e assay EC50 Mean pM GLP-1R [pM] | Binder
1 | 765 | 1670 | 1220 | H[Aib]EGS[αMeF]TSDV[αMeS]K([PEG2′-PEG2′-γGlu-Stearoyl])[αMeF]LEGEAA[αMeK]E[αMeF]IA[αMeF]VV[αMeK]GG-NH2 [SEQ ID NO 117]
2 | 52.6 | 21.5 | 37 | H[Aib]EGS[αMeF]TSDV[αMeS]S[αMeF]LEGEAAK([PEG2′-PEG2′-PEG2′-Lauroyl])E[αMeF]IA[αMeF]VV[αMeK]GG-NH2 [SEQ ID NO 136]
3 | 168 | 77.6 | 123 | H[Aib]EGS[αMeF]TSDV[αMeS]S[αMeF]LEGEAAK([PEG2′-Lauroyl])E[αMeF]IA[αMeF]VV[αMeK]GG-NH2 [SEQ ID NO 134]
4 | 98.6 | 59.3 | 79 | H[Aib]EGS[αMeF]TSDV[αMeS]S[αMeF]LEGEAAK([PEG2′-PEG2′-Lauroyl])E[αMeF]IA[αMeF]VV[αMeK]GG-NH2 [SEQ ID NO 135]
5 | 233 | 687 | 460 | B1
6 | 129 | 115 | 122 | B2
7 | 45.1 | 22.7 | 34 | H[Aib]EGS[αMeF]TSDV[αMeS]S[αMeF]LEGEAAK([PEG2′-Dodecanoyl(12-OPh(4-COOH))])E[αMeF]IA[αMeF]VV[αMeK]GG-NH2 [SEQ ID NO 143]
8 | 2710 | 1450 | 2080 | H[Aib]EGS[αMeF]TSDK([PEG2′-PEG2′-γGlu-Stearoyl])[αMeS]S[αMeF]LEGEAA[αMeK]E[αMeF]IA[αMeF]VV[αMeK]GG-NH2 [SEQ ID NO 119]
9 | 43.2 | 16.7 | 30 | B3
10 | 32.3 | 17.1 | 25 | H[Aib]EGS[αMeF]TSDV[αMeS]S[αMeF]LEGEAAK([PEG2′-PEG2′-PEG2′-Stearoyl])E[αMeF]IA[αMeF]VV[αMeK]GG-NH2 [SEQ ID NO 154]
11 | 55 | 61.2 | 58 | H[Aib]EGS[αMeF]TSDV[αMeS]S[αMeF]LEGEAAK([PEG2′-PEG2′-Stearoyl])E[αMeF]IA[αMeF]VV[αMeK]GG-NH2 [SEQ ID NO 153]
12 | 63.7 | 36.2 | 50 | B4
13 | 44.7 | 36.7 | 41 | B5
